Test results: the supplement of paper PMC9233669
Fewer inactive variants are shown than the library holds.

Experiments:
biotinyl-Phe-oxazolone = test: self-aminoacylation, catalytic enhancement (BFO) (fold over background); higher = more active; k-Seq, kA / k0A0; sequences stand for … in GGGAAUGGAUCCACAUCUACGAAUUC…UUCACUGCAGACUUGACGAAGCUG
In short: (§1)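 Each biotinyl-aminoacyl-oxazolone, at 2–1250 μM, was incubated with mutagenized RNA pools (0.43 μM) carrying a 21-nt variable region. The 50 μL reactions contained HEPES/NaCl/KCl/MgCl2/CaCl2 buffer with 5% acetonitrile at pH 6.9–7.0 and ran for 90 minutes at room temperature. After streptavidin capture, RNA was measured by qPCR in triplicate and by Illumina sequencing, and catalytic enhancement was calculated as median kA over the uncatalyzed rate from a pseudo-first-order fit of per-sequence fraction reacted.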

biotinyl-Met-oxazolone = test: self-aminoacylation, catalytic enhancement (BMO) (fold over background); higher = more active; k-Seq, kA / k0A0; sequences stand for … in GGGAAUGGAUCCACAUCUACGAAUUC…UUCACUGCAGACUUGACGAAGCUG
In short: as §1

biotinyl-Leu-oxazolone = test: self-aminoacylation, catalytic enhancement (BLO) (fold over background); higher = more active; k-Seq, kA / k0A0; sequences stand for … in GGGAAUGGAUCCACAUCUACGAAUUC…UUCACUGCAGACUUGACGAAGCUG
In short: as §1

biotinyl-Val-oxazolone = test: self-aminoacylation, catalytic enhancement (BVO) (fold over background); higher = more active; k-Seq, kA / k0A0; sequences stand for … in GGGAAUGGAUCCACAUCUACGAAUUC…UUCACUGCAGACUUGACGAAGCUG
In short: as §1

biotinyl-Trp-oxazolone = test: self-aminoacylation, catalytic enhancement (BWO) (fold over background); higher = more active; k-Seq, kA / k0A0; sequences stand for … in GGGAAUGGAUCCACAUCUACGAAUUC…UUCACUGCAGACUUGACGAAGCUG
In short: as §1

biotinyl-Ile-oxazolone = test: self-aminoacylation, catalytic enhancement (BIO) (fold over background); higher = more active; k-Seq, kA / k0A0; sequences stand for … in GGGAAUGGAUCCACAUCUACGAAUUC…UUCACUGCAGACUUGACGAAGCUG
In short: as §1

| Sequence | self-aminoacylation (biotinyl-Phe-oxazolone) | self-aminoacylation (biotinyl-Met-oxazolone) | self-aminoacylation (biotinyl-Leu-oxazolone) | self-aminoacylation (biotinyl-Val-oxazolone) | self-aminoacylation (biotinyl-Trp-oxazolone) | self-aminoacylation (biotinyl-Ile-oxazolone) |
| --- | --- | --- | --- | --- | --- | --- |
| CCACACUUCAAGCGAUCGGCC [Fam1B.1 aminoacylation ribozyme variant] | 20.2 | 4.7 | 2.6 | 5.25 | 7.01 | 3.31 |
| CCACACUUCAAGCGAUCGGUG [Fam1B.1 aminoacylation ribozyme variant] | 41.8 | 6.68 | 8.84 | 4.66 | 6.74 | 4.19 |
| CCACACUUCAAGCGCUCGGUC [Fam1B.1 aminoacylation ribozyme variant] | 3.37 | 0.81 | 1.21 | 1.09 | 1.41 | 1.04 |
| CCACACUUCAAGCUAGCGGUC [Fam1B.1 aminoacylation ribozyme variant] | 0.856 | 0.714 | 0.984 | 0.911 | 0.75 | 0.921 |
| CCACACUUCAAGCUAUCCGUC [Fam1B.1 aminoacylation ribozyme variant] | 0.797 | 0.761 | 0.736 | 1.27 | 1.13 | 1.04 |
| CCACACUUCAAGCUAUCGUUC [Fam1B.1 aminoacylation ribozyme variant] | 0.96 | 0.542 | 0.574 | 0.908 | 0.521 | 0.677 |
| CCACACUUCAAGCUAUCUGUC [Fam1B.1 aminoacylation ribozyme variant] | 0.636 | 0.284 | 0.362 | 0.612 | 0.371 | 0.468 |
| CCACACUUCAAGGAACCGGUC [Fam1B.1 aminoacylation ribozyme variant] | 1.2 | 1.04 | 0.984 | 0.945 | 0.809 | 1.04 |
| CCACACUUCAAGGAAUCAGUC [Fam1B.1 aminoacylation ribozyme variant] | 2.49 | 0.614 | 0.62 | 0.757 | 1.08 | 0.668 |
| CCACACUUCAAGGAAUCCGUC [Fam1B.1 aminoacylation ribozyme variant] | 0.963 | 1.65 | 1.08 | 1.14 | 1.07 | 1.24 |
| CCACACUUCAAGGAUUCGGUC [Fam1B.1 aminoacylation ribozyme variant] | 0.958 | 1.83 | 2.02 | 2.02 | 1.96 | 1.85 |
| CCACACUUCAAGGCAUCGGUC [Fam1B.1 aminoacylation ribozyme variant] | 1.18 | 1.02 | 1.18 | 1.32 | 1.16 | 1.03 |
| CCACACUUCAAGUAAUCAGUC [Fam1B.1 aminoacylation ribozyme variant] | 4.86 | 0.586 | 0.635 | 0.723 | 1.72 | 0.686 |
| CCACACUUCAAGUAAUCGGAC [Fam1B.1 aminoacylation ribozyme variant] | 0.783 | 0.826 | 0.696 | 0.907 | 1.05 | 0.743 |
| CCACACUUCAAUCACUCGGUC [Fam1B.1 aminoacylation ribozyme variant] | 0.947 | 0.763 | 0.773 | 0.984 | 0.753 | 0.936 |
| CCACACUUCACACAAUCGGUC [Fam1B.1 aminoacylation ribozyme variant] | 0.775 | 0.601 | 0.687 | 1.02 | 0.837 | 0.878 |
| CCACACUUCACGCAAUCGGGC [Fam1B.1 aminoacylation ribozyme variant] | 20 | 2.18 | 2.39 | 3.33 | 2.1 | 2.42 |
| CCACACUUCACGCAAUCGGUG [Fam1B.1 aminoacylation ribozyme variant] | 52.2 | 5.89 | 7.74 | 3.5 | 6.24 | 3.09 |
| CCACACUUCACGCAAUCGUUC [Fam1B.1 aminoacylation ribozyme variant] | 0.716 | 0.717 | 0.794 | 0.905 | 0.939 | 0.725 |
| CCACACUUCACGCAGUCGGUC [Fam1B.1 aminoacylation ribozyme variant] | 0.859 | 0.94 | 1.31 | 1.47 | 0.719 | 1.13 |
| CCACACUUCAGGCAAUCAGUC [Fam1B.1 aminoacylation ribozyme variant] | 0.955 | 0.724 | 0.636 | 1.05 | 0.796 | 0.658 |
| CCACACUUCAGGCAAUCGGCC [Fam1B.1 aminoacylation ribozyme variant] | 13.1 | 2.15 | 4.67 | 3.89 | 3.69 | 2.61 |
| CCACACUUCAGGCAAUCGGUG [Fam1B.1 aminoacylation ribozyme variant] | 36.7 | 5.39 | 7.5 | 3.41 | 4.89 | 3.23 |
| CCACACUUCAGGCAAUGGGUC [Fam1B.1 aminoacylation ribozyme variant] | 0.992 | 0.802 | 0.702 | 0.722 | 0.952 | 0.733 |
| CCACACUUCAGGCAAUUGGUC [Fam1B.1 aminoacylation ribozyme variant] | 0.558 | 0.647 | 0.823 | 0.83 | 0.556 | 0.887 |
| CCACACUUCAGGCAUUCGGUC [Fam1B.1 aminoacylation ribozyme variant] | 1.09 | 1.88 | 2.2 | 2.48 | 2.27 | 2.2 |
